According to the DeepSol protein solubility set:

Assay: soluble on expression in E. coli; label from the status in PepcDB or PDB records

Sequence: MKRLSPEVFKVPIDRIRNGYYSDIYFINYVKVLKRDSRHPRVYYQFFPRKDAVICGIDEALAILKFCTGYYKDEEKARELFEEILKLDKEMQAASVEMDVQKILELTQKKWDLRLKLNDLWVDKWDEIEVHALYDGEEAKEGEPIMTIEGDPTYFGYLETVLLGVIARATSTATAVKKVVKAARGKPVLFFSARFDHYWVQATDGYAALKAGAFGVSTDANADYWGVKSMGTMPHALIACYDGKTEDAAIAFDRHMEEDVNRIVLVDWDNDVIGTTFRVIEKFYEYVMKKPFKLGVTDPSPIIGPGKNKIWGVRFDTSGNLRDKSVVPKDESSFGVCPELVWRARQEFDKVGLRDLKIVVSGGFDEKKIDLFERLGVPADAYGVGSRLLREKVDITADIVEVNGRHCAKVGRYKIENPRLKKVGKRYWEEE
- soluble on expression in E. coli: soluble

Sequence: MGSDKIHHHHHHMLFLSGLLGVSAQRVALKNNLLYDATLTPNLALEIGVGPKMTVDLLGGVNPFKISDDHYWKHWLAQPELRYWFCEKFNGVCIGLHGHVGQMNIAGISVPPVGSIHPKSDFDDARYHRYQGWFYGGGISIGRQWILGNHWNLEASIGGGYIHFDYDKYQCVECGKKVGVDKKADYFGLTRATLSLIYLFK
- soluble on expression in E. coli: not soluble

Sequence: MGSDKIHHHHHHMETDMPADMIQPLCEIDDLRIGFHGHDGALTEAVRGLSLTLHRGERLGIVGESGSGKSLTGRALLGLLPPAAQYRAKAMTFDGQDLLSMSARKRRQLCGQQMGMILQDPKYSLNPVMTVAQQMREVFDLHGPKLGRREMREQIIAALAAVHIRNPERVADAYPHELSGGMGQRVMIAMMVSSGPRLLVADEPTSALDVLVSMQVLGILDEMIEKHHTGLIFISHDLPLVMSFCDRVVVMFAGRVVETCAARDLVHARHPYTRGLLAASPPLIDPPDQLPVLKPDPAWLTQPAGASA
- soluble on expression in E. coli: not soluble

Sequence: MGSDKIHHHHHHMTGIALSPIGALWGIVGAKTHGTVEMGAALTHRGCYMAMEEGPTFSFGARHSAEIWPISVDDDIAVVYSGFPFVVDEETRTPRYLSAEDIRTEFLRFGADFFRVLCGHYAIAVYCYTRHRLILVRDAFGVQSLSWASSNENFAFSTEYKALLSLPWVERNLDHDAARGFVDDGWAPAGRTFLRHISMVLPGSILIWQNGNLETIHLRQDLCKTRPPFRPISVRHVEMTVRETIGWQANDFSPRYGVMLSSGVDSAVIAATLRRIRRDSEIHTFTVGYGYDDPEIIGASATASVLGTQHHEIIVRPDALTALLTDTIVAVDNPGGYEEFPCLYALHQEARQFVDIIFSGNAADTLFAGMPYHRDLLSTDDAIYRRLCNDLTVRDERLAAQELLAGRHGLNFRMPYAERILIDLALEIPDFQKLSPENDKIIFREAARQILPDEITMRPKRIQHLLYDDSMCSWLAERIEWICSSSLLRTHSLGELEGAAILPPRNLELTEESFKAAWNVVALATWASIYLA
- soluble on expression in E. coli: not soluble

Sequence: MTLKLTYFDIHGLAEPIRLLLADKQVAYEDHRVTYEQWADIKPKMIFGQVPCLLSGDEEIVQSGAIIRHLARLNGLNGSNETETTFIDMFYEGLRDLHTKYTTMIYRNYEDGKAPYIKDVLPGELARLEKLFHTYKNGEHYVIGDKESYADYVLFEELDIHLILTPNALDGVPALKKFHERFAERPNIKAYLNKRAAINPPVNGNGKQ
- soluble on expression in E. coli: not soluble

Sequence: MIFRRSRPGTIGAVTLLCASLLAMPASSACTRFVYHGANDEVITARSMDWKVDVGTNLWAFPRGMQRSGQAGPNSIQWTSKHGSVIASGYDISTTDGMNEAGLVANVLWLAESSYPEYDGKTPGLTLAAWAQYVLDNFASVREAVDTLASEPFTVVTDNVPGEQRPATLHLSLSDASGDSAIIEYIDGKQVIHHNRAYQVMTNSPTFDKQLALNEYWKQIGGTVMLPGTNRASDRYARAYFYVNAIPKSEDPVEAIASVFSVIRNVSVPYGITTPDQPNISSTRWRTVADHKRKRYFFESALTPNIFWIDLGALDFSAESGKVMKLDLGPDQAHIYSGQANAHFEQAAPFKFLGL
- soluble on expression in E. coli: not soluble

Sequence: GSHMATPWSGYLDDVSAKFDTGVDNLQTQVTEALDKLAAKPSDPALLAAYQSKLSEYNLYRNAQSNTAKAFKDIDAAIIQNFR
- soluble on expression in E. coli: soluble

Sequence: MGSDKIHHHHHHMVDDVFGNAIASATFRTHSDSLVVDSLATVDLTASAWPVFDIAASAINYPFLYADRDGTDLGALAVQQFDDVDQRLRTWMRGFVAGEPTDTLSLLKDISLGIASSISYQSREEEGTQAPLTTLDRGWGSCRDFAVLFAEAVRSLGFGARIVSGYLFNPNRALTGSTDSGSTHAWAEVFVPGAGWITLDPTNRSMGGANLIPVAVTRDIAHAVPVSGSFIGGSNGLPVNERGRRSQSNRPGLSGAAVERWIDVAQFSRCRAAPLVLNRPEPLTR
- soluble on expression in E. coli: not soluble

Sequence: MTIETIKRIIEEENVRFIRLQFTDINGTLKNLEITPDVFLESWEDGIMFDGSSIEGFVRIEESDMYLKPVLDTFAVLPWTVDGAKSARVICDVYTPDGKPFEGDPRYRLRRMMEKAEQLGYTPYAGPEMEFFILPINEKGEPVPEFLDHGGYFDLLPLSKVEEIRRDIAIALEKMGITVEATHHEVAPSQHEVDFRYDTFLRTADNAQTVKLVIKTMAIFHGYHATFMPKPFYGVNGSGMHVHMSLFRGDKNAFYDPDDPLGLSKELRYFVGGILKHAKALAAVTNPTINSYKRLVPGYEAPVYISWSVGNRSALIRIPKARGKATRLEYRSPDPSCNIYLAFAAILAAGLDGIINKIEPPAPVEENIYHMTSERREELNIESLPGSLKEAVEELKKDDVIIDALGEHIFEKFVEAAEKDWKEFSTYVTNWELQRYLYL
- soluble on expression in E. coli: soluble

Sequence: MGSDKIHHHHHHMILAAKNSVFVHIRRGDYVGIGCQLGIDYQKKALEYMAKRVPNMELFVFCEDLEFTQNLDLGYPFMDMTTRDKEEEAYWDMLLMQSCQHGIIANSTYSWWAAYLIENPEKIIIGPKHWLFGHENILCKEWVKIESHFEVKSQKYNA
- soluble on expression in E. coli: not soluble

Sequence: MDKIIKSIAQSGAFRAYVLDSTETVALAQEKHNTLSSSTVALGRTLIANQILAANQKGDSKITVKVIGDSSFGHIISVADTKGHVKGYIQNTGVDIKKTATGEVLVGPFMGNGHFVTIIDYGTGNPYTSTTPLITGEIGEDFAYYLTESEQTPSAIGLNVLLDENDKVKVAGGFMVQVLPGASEEEIARYEKRLQEMPAISHLLASKNHVDALLEAIYGDEPYKRLSEEPLSFQCDCSRERFEAALMTLPKADLQAMIDEDKGAEIVCQFCGTKYQFNESDLEAIISDKA
- soluble on expression in E. coli: not soluble

Sequence: MEDPVFTFGLIADVQYADIEDGENYLRTRRRYYRGSADLLRDAVLQWRRERVQCVVQLGDIIDGHNRRRDASDRALDTVMAELDACSVDVHHVWGNHEFYNFSRPSLLSSRLNSAQRTGTDTGSDLIGDDIYAYEFSPAPNFRFVLLDAYDLSVIGREEESEKHTHSWRILTQHNHNLQDLNLPPVSVGLEQRFVKFNGGFSEQQLQWLDAVLTLSDHKQERVLIFSHLPVHPCAADPICLAWNHEAVLSVLRSHQSVLCFIAGHDHDGGRCTDSSGAQHITLEGVIETPPHSHAFATAYLYEDRMVMKGRGRVEDLTITYS
- soluble on expression in E. coli: not soluble

Sequence: MMNASTKFSDNYDVKEELGKGAFSVVRRCVHKTTGLEFAAKIINTKKLSARDFQKLEREARICRKLQHPNIVRLHDSIQEESFHYLVFDLVTGGELFEDIVAREFYSEADASHCIQQILESIAYCHSNGIVHRDLKPENLLLASKAKGAAVKLADFGLAIEVNDSEAWHGFAGTPGYLSPEVLKKDPYSKPVDIWACGVILYILLVGYPPFWDEDQHRLYAQIKAGAYDYPSPEWDTVTPEAKSLIDSMLTVNPKKRITADQALKVPWICNRERVASAIHRQDTVDCLKKFNARRKLKAAISAVKMVTRMSGVLRTSDSTGSVASNGSTTHDASQVAGTSSQPTSPAAEGAILTTMIATRNLSNLGRNLLNKKEQGPPSTIKESSESSQTIDDNDSEKGGGQLKHENTVVRADGATGIVSSSNSSTASKSSSTNLSAQKQDIVRVTQTLLDAISCKDFETYTRLCDTSMTCFEPEALGNLIEGIEFHRFYFDGNRKNQVHTTMLNPNVHIIGEDAACVAYVKLTQFLDRNGEAHTRQSQESRVWSKKQGRWVCVHVHRSTQPSTNTTVSEF
- soluble on expression in E. coli: not soluble

Sequence: MSLEHFFTGTVDRIIFENAANFFKILLLAIEDTDSDIDDFEIIITGTMADIIEGDDYTFWGELTQHPKYGQQLKLSRYQKIKPSSSGLVNYFSSDHFKGIGKKTAEKIIALYGHNTIDHILEDPSKLETISGLSKANRQAFVAKLKLNYGTEQLIAGLVELGLSNRFALQAFEKYKEEALDLVKENPYQLVEDLQGFGFKMADALAENLGIESDSPKRFRAALLHCLLEESINRGDTYVQARQLLDFAITLLEDARQVECDPAAVAEQLSELIIEGKIKNSDTKLFDASLYFAEEGIANNISRLLDTPLSQSFSHDTIQTTIQAVQKDFAITYDQVQQEAITKALTSKVFLLTGGPGTGKTTVIRGILQAYANLHQIDLDKKDLPILLAAPTGRAARRMNELTGLPSATIHRHLGLNGDNDYQAMEDYLDCDLLIVDEFSMVDTWLANQLLGAINSTTQVIIVGDSDQLPSVGPGQVLSDLLKVNSLPQIALQKIFRQSQESTIVNLADQMRRGILAADFRDKKADRSYFEAQAAFIPDMIQKIVLSAIKSGIPAEEIQILAPMYKGQAGINHLNQLMQELLNPLQGQTEFLFNDTHFRKGDKVLHLVNDAQLNVFNGDIGYITDLIPAKYTESKQDELILDFDGSEVTYPRNEWLKLTLAYAMSIHKSQGSEFQVVILPITRQSGRLLQRNVIYTAITRSKSKLILLGEYTAFEYAIKHEGDKRQTYLIERFQEQSDLASSEGHHHHHH
- soluble on expression in E. coli: soluble

Sequence: MGSDKIHHHHHHMISNEQYDYLRAHPTFERLTRDSFDQLAKHIRFRKIPKGQIFFYAEDPRDYLFVLYKGYARIEQYDETDSFTYLDYIRQGGAFPFGDMFQDKPYHYTAIAITDLEYFIVPMVLFETLSKINPSQMVYICQKLSKVLRFQELRLRNAMRSKASDRVVQALALLYWDMCQRDQFATLPFEIHIQEISRLAATTRETVSHVLKQLKQDGKIAYSHKQLTYLDIDYFLENLTETH
- soluble on expression in E. coli: not soluble

Sequence: MSLTIMPDIARMKRELAEIIAIRSENPPGGEADVAVYVERLLKDEGFSVSLTEYKPGRFNVEARIENGPGPVFAFNTHMDTVPAGDGWTTDAFILREDDGKLFGRGACDCKGPLIAMIEAMRMLAADRTAWSGTLLGVFVGDEEIASEGAKYYAAARPKIDFAVVGEPTSNTTYSAHKGSLRPVVRVHGVTAHSGTPHLGDNAIYRAGQLLTLVEAFHNNVVRKRTHPLVGEASLTVTRISGGHADNVLPGSCDLLLDRRMVPGESEDAVKQEFATLLKDAYDRFGVKAEIVDYKATTGSATETAADQSIVAASLEACRASGTSDPGPFGFQGGCDLVHFRSLGAQGTVIGPGSLSVAHKADEFVPLDEFVTCSVIYRDVARKMLRPNEGHHHHHH
- soluble on expression in E. coli: soluble

Sequence: MGSDKIHHHHHHMYAQTPQDMTRALFEAQLVELQRARAIRKKYHTDVVLGLTSAIRVLLIDMPSLYDKIKLLDYLHIVVEEPRFRSSHEGVKFHAYTATLPPDRTPDRTLQRDRTSRQTAATPETPHTQTARSHKKVTRDTTPFAAYENSKYAPIFVEPHIFTVHPLLLWVQMAAYLRLEELVVLGDAMMRRSFYRVHVSPADFATLLNELPTTFPHRKKCDKAVKLLAENTDSCMETRLRFRMLRAGYGPFVINYRLPLNTADKKQAFLDIAIPNLKIAIEYSGKFHAQNWESDEARRTALSSAGWQILSVNAETLSNSGKFKDFLIQLSMTIARQQTILQRNQQM
- soluble on expression in E. coli: not soluble

Sequence: MAHHHHHHMDRLAGSFLSNGDVANASSLYNSLEKLNPTRYSRMARICRVLLNPQGVPLPHRHLDICEALLDPLVPPEVLLRDSAENVQKSFQRLAVCAHPDKNPSPSANEAFLRLTMMKDKALELLRNGVGRKCDGATEAPPGKAADSNGGKGKPKMQGSGPAVPTVAHRRRPLRPGVPL
- soluble on expression in E. coli: soluble
